In patent US7138262B1, “High mannose proteins and methods of making high mannose proteins” (Shire Human Genetic Therapies, Inc., priority 2000, dated 2006):

System: mouse J774E cells
Assay: Internalization (uptake) of glucocerebrosidase into J774E macrophage cells, with or without mannan
Format: cell-based
Conditions: for Glucocerebrosidase Activity, Absolute / Glucocerebrosidase Activity, Background Corrected / uptake of GA-GCB over background: GA-GCB 10 μg/mL; for Glucocerebrosidase Activity, Absolute: 4 hours at 37° C.; for Glucocerebrosidase Activity, Background Corrected / uptake of GA-GCB over background: 4 hours; for Inhibition (%) of uptake by mannan: mannan 2 μg/mL, competitor for the mannose receptor
Protocol: GA-GCB produced in HT-1080 cells was used in an in vitro assay to determine uptake efficiency in a mouse macrophage cell line. The specific objective of the experiment was to determine the absolute and mannose receptor-specific uptake of GA-GCB in mouse J774E cells. One day prior to assay, J774E cells were plated at 50,000 cells/cm^2 in 12 well plates in Growth Medium. For the assay, 0.5 mL of Production Medium (DMEM/F12), 0% calf serum) containing 50 nM vitamin D3 (1,2-5, Dihydroxy vitamin D3) was added to the cells. Unpurified GA-GCB (from harvest 4, Table 1) was added to the test wells at a final concentration of 10 μg/mL in the presence or absence of 2 μg/mL mannan (a competitor for the mannose receptor). Three different forms of GA-GCB were used: GA-GCB from cells treated with kifunensine (1 μg/mL), GA-GCB from cells treated with swainsonine (1 μg/mL), and GA-GCB (1 μg/mL) from untreated cells. Control wells received no GA-GCB. The wells were incubated for 4 hours at 37° C., then washed extensively in buffered saline, scraped into GA-GCB enzyme reaction buffer, passed through 2 freeze/thaw cycles, and clarified by centrifugation. The supernantant was then quantitatively tested for enzyme activity and total protein. Internalization of GA-GCB into mouse J744E cells is shown in Table 2 and is reported as Units/mg of cell lysate. […] Thus, the inhibition of intracellular mannosidases by either kifunensine or swainsonine results in GA-GCB that can be transported into cells efficiently via the mannose receptor, with kifunensine causing an approximately 2-fold greater uptake than swainsonine. Improvement in targeting of GA-GCB to cells via mannose receptors can therefore be optimized by production of GA-GCB in the presence of kifunensine or swainsonine.

B1: GA-GCB from kifunensine treated cells: unpurified gene-activated glucocerebrosidase from HT-1080 cells treated with kifunensine (1 μg/mL) (protein)
chain: ARPCIPKSFGYSSVVCVCNATYCDSFDPPTFPALGTFSRYESTRSGRRMELSMGPIQANHTGTGLLLTLQPEQKFQKVKGFGGAMTDAAALNILALSPPAQNLLLKSYFSEEGIGYNIIRVPMASCDFSIRTYTYADTPDDFQLHNFSLPEEDTKLKIPLIHRALQLAQRPVSLLASPWTSPTWLKTNGAVNGKGSLKGQPGDIYHQTWARYFVKFLDAYAEHKLQFWAVTAENEPSAGLLSGYPFQCLGFTPEHQRDFIARDLGPTLANSTHHNVRLLMLDDQRLLLPHWAKVVLTDPEAAKYVHGIAVHWYLDFLAPAKATLGETHRLFPNTMLFASEACVGSKFWEQSVRLGSWDRGMQYSHSIITNLLYHVVGWTDWNLALNPEGGPNWVRNFVDSPIIVDITKDTFYKQPMFYHLGHFSKFIPEGSQRVGLVASQKNDLDAVALMHPDGSAVVVVLNRSSKDVPLTIKDPAVGFLETISPGYSIHTYLWRRQ
In the case of B1, the “Glucocerebrosidase Activity, Absolute” value (+ mannan 2 μg/mL) is reported as 2977 Units/mg cell lysate, the “Glucocerebrosidase Activity, Absolute” value (without mannan) is reported as 9185 Units/mg cell lysate and the “Glucocerebrosidase Activity, Background Corrected” value (+ mannan 2 μg/mL) is reported as 2322 Units/mg cell lysate. The “Glucocerebrosidase Activity, Background Corrected” value (without mannan) was 8530 Units/mg cell lysate, the “uptake of GA-GCB over background” value (without mannan) was 14 fold and the “Inhibition (%) of uptake by mannan” value was 73%.

B2: GA-GCB from swainsonine treated cells: unpurified gene-activated glucocerebrosidase from HT-1080 cells treated with swainsonine (1 μg/mL) (protein)
chain: ARPCIPKSFGYSSVVCVCNATYCDSFDPPTFPALGTFSRYESTRSGRRMELSMGPIQANHTGTGLLLTLQPEQKFQKVKGFGGAMTDAAALNILALSPPAQNLLLKSYFSEEGIGYNIIRVPMASCDFSIRTYTYADTPDDFQLHNFSLPEEDTKLKIPLIHRALQLAQRPVSLLASPWTSPTWLKTNGAVNGKGSLKGQPGDIYHQTWARYFVKFLDAYAEHKLQFWAVTAENEPSAGLLSGYPFQCLGFTPEHQRDFIARDLGPTLANSTHHNVRLLMLDDQRLLLPHWAKVVLTDPEAAKYVHGIAVHWYLDFLAPAKATLGETHRLFPNTMLFASEACVGSKFWEQSVRLGSWDRGMQYSHSIITNLLYHVVGWTDWNLALNPEGGPNWVRNFVDSPIIVDITKDTFYKQPMFYHLGHFSKFIPEGSQRVGLVASQKNDLDAVALMHPDGSAVVVVLNRSSKDVPLTIKDPAVGFLETISPGYSIHTYLWRRQ
With B2 the “Glucocerebrosidase Activity, Absolute” value (+ mannan 2 μg/mL) was 2036 Units/mg cell lysate, the “Glucocerebrosidase Activity, Absolute” value (without mannan) was 4787 Units/mg cell lysate and the “Glucocerebrosidase Activity, Background Corrected” value (+ mannan 2 μg/mL) was 1381 Units/mg cell lysate. For the same molecule, the “Glucocerebrosidase Activity, Background Corrected” value (without mannan) was 4132 Units/mg cell lysate, the “uptake of GA-GCB over background” value (without mannan) was 7 fold and the “Inhibition (%) of uptake by mannan” value was 67%.

B3: hmGCB: glucocerebrosidase having at least one carbohydrate chain having four or more mannose residues from a precursor oligosaccharide (protein)
chain: ARPCIPKSFGYSSVVCVCNATYCDSFDPPTFPALGTFSRYESTRSGRRMELSMGPIQANHTGTGLLLTLQPEQKFQKVKGFGGAMTDAAALNILALSPPAQNLLLKSYFSEEGIGYNIIRVPMASCDFSIRTYTYADTPDDFQLHNFSLPEEDTKLKIPLIHRALQLAQRPVSLLASPWTSPTWLKTNGAVNGKGSLKGQPGDIYHQTWARYFVKFLDAYAEHKLQFWAVTAENEPSAGLLSGYPFQCLGFTPEHQRDFIARDLGPTLANSTHHNVRLLMLDDQRLLLPHWAKVVLTDPEAAKYVHGIAVHWYLDFLAPAKATLGETHRLFPNTMLFASEACVGSKFWEQSVRLGSWDRGMQYSHSIITNLLYHVVGWTDWNLALNPEGGPNWVRNFVDSPIIVDITKDTFYKQPMFYHLGHFSKFIPEGSQRVGLVASQKNDLDAVALMHPDGSAVVVVLNRSSKDVPLTIKDPAVGFLETISPGYSIHTYLWRRQ
For B3, the “hmGCB uptake by macrophages compared to uptake of GCB secreted from cells” value (summary statement) was “increased”.

B4: GA-GCB from untreated cells: unpurified gene-activated glucocerebrosidase from HT-1080 cells without drug treatment (protein)
chain: ARPCIPKSFGYSSVVCVCNATYCDSFDPPTFPALGTFSRYESTRSGRRMELSMGPIQANHTGTGLLLTLQPEQKFQKVKGFGGAMTDAAALNILALSPPAQNLLLKSYFSEEGIGYNIIRVPMASCDFSIRTYTYADTPDDFQLHNFSLPEEDTKLKIPLIHRALQLAQRPVSLLASPWTSPTWLKTNGAVNGKGSLKGQPGDIYHQTWARYFVKFLDAYAEHKLQFWAVTAENEPSAGLLSGYPFQCLGFTPEHQRDFIARDLGPTLANSTHHNVRLLMLDDQRLLLPHWAKVVLTDPEAAKYVHGIAVHWYLDFLAPAKATLGETHRLFPNTMLFASEACVGSKFWEQSVRLGSWDRGMQYSHSIITNLLYHVVGWTDWNLALNPEGGPNWVRNFVDSPIIVDITKDTFYKQPMFYHLGHFSKFIPEGSQRVGLVASQKNDLDAVALMHPDGSAVVVVLNRSSKDVPLTIKDPAVGFLETISPGYSIHTYLWRRQ
In the case of B4, the “Glucocerebrosidase Activity, Absolute” value (+ mannan 2 μg/mL) is reported as 1678 Units/mg cell lysate, the “Glucocerebrosidase Activity, Absolute” value (without mannan) is reported as 2816 Units/mg cell lysate and the “Glucocerebrosidase Activity, Background Corrected” value (+ mannan 2 μg/mL) is reported as 1023 Units/mg cell lysate. The “Glucocerebrosidase Activity, Background Corrected” value (without mannan) was 2161 Units/mg cell lysate, the “uptake of GA-GCB over background” value (without mannan) was “approximately 3 fold” and the “Inhibition (%) of uptake by mannan” value was 53%.
